The data set deals with the molecule itself. The experiment in a line: SEC; analytical SEC on ENrich SEC 650 calibrated with mass standards; 50 mM BTP pH 7.4, 4°C, protein loaded at 1 mg/mL, 0.2 mL/min; apparent mass compared with theoretical monomer mass.

B1: PgiCM (separated CM domain of PgiDAH7PS-CM) (domain or fragment, Porphyromonas gingivalis, UniProt B2RJM7 259-366, looked up)
chain: IPRRQSEKQDEELISWRMQIDQIDESIVELLARRMQVAYEIGLFKKEHNLAVVQNLRYEQLQRNRARTAALLGLDETFISELFSRIHEESVRLQTLAPQKPHTDDCIS
notes: C-terminal part of PgiDAH7PS-CM, Porphyromonas gingivalis, UniProt B2RJM7, split between R258 and I259; theoretical monomer MW 13 kDa; source: E. coli BL21 (DE3), purified (HisTrap HP, TEV digestion, second HisTrap); not shown: His6, N-terminal, cleaved
Turning to B1, the “stoichiometry N” value amounted to 2.

B2: PgiDAH7PS-CM (bifunctional 3-deoxy-D-arabino heptulosonate-7-phosphate synthase / chorismate mutase from Porphyromonas gingivalis) (enzyme, UniProt B2RJM7 1-366, looked up)
chain: MKYCDFTPLPLPSEPNTTVIAGPCSAESEEQIMTTARALRDEAGIRIFRAGLWKPRTLPGCFEGVGETGLPWLVRVQDELDMLATTEVATREHVEQAMQAGIRILWLGARTTSNPFAVQEIADTIGKDESVIVLVKNPISPDLDLWTGALERLRQSGVRQIGAIHRGFSTYATKTFRNPPHWQIPFDLKRRFPSLTILCDPSHITGQRDRIESVSQQAMEMNFDGLIIESHCCPDKALSDASQQITPTVLAQILRRLRIPRRQSEKQDEELISWRMQIDQIDESIVELLARRMQVAYEIGLFKKEHNLAVVQNLRYEQLQRNRARTAALLGLDETFISELFSRIHEESVRLQTLAPQKPHTDDCIS
notes: PgiDAH7PS-CM, Porphyromonas gingivalis, UniProt B2RJM7, 366 amino acid residues; DAH7PS domain 17-253, 11-residue linker, CM domain 265-356; codon-optimised synthetic gene in pET28a; Homodimer by analytical SEC (68 ± 6 kDa against a theoretical monomer of 42 kDa); also called full-length PgiDAH7PS-CM; PgiDAH7PS^WT; source: E. coli BL21 (DE3), purified (HisTrap HP, TEV digestion, second HisTrap); …
For B2, the “stoichiometry N” value was found to be 2.

Values taken from publication PMC12202928, “Bidirectional interdomain crosstalk in a Porphyromonas gingivalis chimeric enzyme coordinates catalytic synergy for aromatic amino acid biosynthesis” (Frontiers in Microbiology, 2025).
